What follows are sequences tested on Escherichia coli TOP10 (assay: shrunken log2 fold change of peptide-encoding DNA abundance (4.5 h post-induction vs induction); higher = less antimicrobial activity (less host growth inhibition)). Settings: time post-induction: 4.5 h; library: site-saturation at positions 5, 18, 19, 20.
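Note: peptides expressed intracellularly from a pBAD plasmid library in pooled LB shake-flask culture, induced with 0.3% L-arabinose, DNA abundance read by NGS, three biological replicates, DESeq2 with apeglm shrinkage.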

Sequence | shrunken log2 fold change
RRIRKRPPRLPRPRPRPNYAPRP | -0.0324
RRIRKRPPRLPRPRPRPNFFPRP | 0.0314
RRIRRRPPRLPRPRPRPKGIPRP | 0.268
RRIRLRPPRLPRPRPRPEAFPRP | 0.0443
RRIRARPPRLPRPRPRPKLKPRP | 0.272
RRIRFRPPRLPRPRPRPRPGPRP | 0.837
RRIRIRPPRLPRPRPRPVFLPRP | -0.51
RRIRFRPPRLPRPRPRPLFYPRP | -0.0429
RRIRIRPPRLPRPRPRPYERPRP | -0.023
RRIRARPPRLPRPRPRPNADPRP | 0.825
RRIRYRPPRLPRPRPRPTIHPRP | -1.2
RRIRTRPPRLPRPRPRPNAFPRP | -0.0622
RRIRCRPPRLPRPRPRPAAYPRP | -0.101
RRIRMRPPRLPRPRPRPFIYPRP | 0.892
RRIRQRPPRLPRPRPRPRGPPRP | 0.0418
RRIRLRPPRLPRPRPRPRKNPRP | 0.0496
RRIRYRPPRLPRPRPRPQWSPRP | -0.0453
RRIRQRPPRLPRPRPRPFIYPRP | -0.372
RRIRPRPPRLPRPRPRPYWAPRP | -0.365
RRIRKRPPRLPRPRPRPGAPPRP | 0.85
RRIRERPPRLPRPRPRPRCMPRP | -0.355
RRIRDRPPRLPRPRPRPSFNPRP | -0.68
RRIRTRPPRLPRPRPRPAQIPRP | 0.358
RRIRIRPPRLPRPRPRPYETPRP | -0.0282
RRIRKRPPRLPRPRPRPKYIPRP | -0.0449

Sequence | shrunken log2 fold change
RRIRTRPPRLPRPRPRPIPDPRP | -0.32
RRIRDRPPRLPRPRPRPRSCPRP | 0.2
RRIRKRPPRLPRPRPRPMLYPRP | -0.26
RRIRTRPPRLPRPRPRPPGKPRP | 0.129
RRIRHRPPRLPRPRPRPWSEPRP | 0.00408
RRIRIRPPRLPRPRPRPRDEPRP | 0.27
RRIRLRPPRLPRPRPRPLEFPRP | -0.252
RRIRRRPPRLPRPRPRPSQCPRP | 0.0735
RRIRLRPPRLPRPRPRPYKKPRP | -0.404
RRIRARPPRLPRPRPRPHSDPRP | 0.39
RRIRKRPPRLPRPRPRPGPEPRP | 1.1
RRIRQRPPRLPRPRPRPPCVPRP | 0.214
RRIRGRPPRLPRPRPRPYGCPRP | -0.091
RRIRARPPRLPRPRPRPNLVPRP | -0.0779
RRIRPRPPRLPRPRPRPIPIPRP | -0.065
RRIRGRPPRLPRPRPRPADTPRP | 0.0689
RRIRHRPPRLPRPRPRPFSHPRP | -0.254
RRIRRRPPRLPRPRPRPMDVPRP | 0.0427
RRIRSRPPRLPRPRPRPPNWPRP | 0.504
RRIRERPPRLPRPRPRPHGYPRP | 0.0062
RRIRQRPPRLPRPRPRPHPGPRP | 0.125
RRIRCRPPRLPRPRPRPQYSPRP | -0.273
RRIRCRPPRLPRPRPRPHKHPRP | -0.58
RRIRTRPPRLPRPRPRPDHLPRP | 0.0101
RRIRMRPPRLPRPRPRPKNFPRP | -0.15

Sequence | shrunken log2 fold change
RRIRYRPPRLPRPRPRPGKTPRP | -0.0233
RRIRDRPPRLPRPRPRPSDPPRP | -0.0499
RRIRWRPPRLPRPRPRPPCWPRP | 0.347
RRIRTRPPRLPRPRPRPQCTPRP | -0.175
RRIRNRPPRLPRPRPRPRAGPRP | 0.25
RRIRGRPPRLPRPRPRPGKHPRP | 0.384
RRIRKRPPRLPRPRPRPYMTPRP | -0.0252
RRIRTRPPRLPRPRPRPWRYPRP | 0.108
RRIRNRPPRLPRPRPRPVDLPRP | -0.21
RRIRWRPPRLPRPRPRPSDEPRP | -0.117
RRIRFRPPRLPRPRPRPPNNPRP | -0.445
RRIRCRPPRLPRPRPRPTPEPRP | 0.284
RRIRFRPPRLPRPRPRPCSMPRP | -0.343
RRIRDRPPRLPRPRPRPEHEPRP | 0.017
RRIRNRPPRLPRPRPRPKACPRP | -0.00921
RRIRFRPPRLPRPRPRPSGGPRP | -0.103
RRIRSRPPRLPRPRPRPMQEPRP | 0.169
RRIRARPPRLPRPRPRPLSTPRP | 0.319
RRIRFRPPRLPRPRPRPSTYPRP | -0.802
RRIRFRPPRLPRPRPRPGRMPRP | 0.0574
RRIRARPPRLPRPRPRPDSYPRP | -0.111
RRIRVRPPRLPRPRPRPRKSPRP | 0.337
RRIRIRPPRLPRPRPRPVPQPRP | 0.224
RRIRMRPPRLPRPRPRPQMEPRP | 0.0809
RRIRTRPPRLPRPRPRPPYMPRP | -0.302

Sequence | shrunken log2 fold change
RRIRKRPPRLPRPRPRPYRYPRP | -0.14
RRIRQRPPRLPRPRPRPRWIPRP | 0.274
RRIRKRPPRLPRPRPRPYQEPRP | 0.0431
RRIRWRPPRLPRPRPRPCMIPRP | -0.471
RRIRIRPPRLPRPRPRPEEGPRP | -0.05
RRIRTRPPRLPRPRPRPRKIPRP | -0.0707
RRIRMRPPRLPRPRPRPFLLPRP | -0.227
RRIRHRPPRLPRPRPRPSMIPRP | -0.23
RRIRVRPPRLPRPRPRPARWPRP | 0.586
RRIRLRPPRLPRPRPRPLCEPRP | 0.0911
RRIRCRPPRLPRPRPRPDWEPRP | -0.524
RRIRCRPPRLPRPRPRPVVGPRP | -0.0604
RRIRSRPPRLPRPRPRPRGTPRP | 0.407
RRIRERPPRLPRPRPRPWYTPRP | 3.82
RRIRTRPPRLPRPRPRPVADPRP | 0.0403
RRIRGRPPRLPRPRPRPGYCPRP | -0.183
RRIRWRPPRLPRPRPRPNLGPRP | 0.0106
RRIRERPPRLPRPRPRPRLWPRP | 0.0271
RRIRLRPPRLPRPRPRPENEPRP | -0.0211
RRIRRRPPRLPRPRPRPTKGPRP | 0.244
RRIRRRPPRLPRPRPRPQMEPRP | 0.0751
RRIRQRPPRLPRPRPRPMTAPRP | 0.291
RRIRRRPPRLPRPRPRPVDIPRP | -0.0798
RRIRPRPPRLPRPRPRPYYFPRP | -0.427
RRIRERPPRLPRPRPRPMMAPRP | -0.128

Sequence | shrunken log2 fold change
RRIRPRPPRLPRPRPRPNVHPRP | -0.44
RRIRQRPPRLPRPRPRPWFSPRP | -0.102
RRIRGRPPRLPRPRPRPKKVPRP | 0.942
RRIRYRPPRLPRPRPRPNLHPRP | -0.821
RRIRARPPRLPRPRPRPTCEPRP | 0.723
RRIRERPPRLPRPRPRPDLYPRP | -0.0156
RRIRARPPRLPRPRPRPPNTPRP | 0.289
RRIRKRPPRLPRPRPRPMGCPRP | 0.408
RRIRWRPPRLPRPRPRPMLQPRP | 0.544
RRIRYRPPRLPRPRPRPGHPPRP | -0.0687
RRIRVRPPRLPRPRPRPPSNPRP | -0.034
RRIRWRPPRLPRPRPRPVMEPRP | 0.0979
RRIRFRPPRLPRPRPRPWGMPRP | -0.171
RRIRARPPRLPRPRPRPKQCPRP | 0.123
RRIRHRPPRLPRPRPRPCRPPRP | 0.0355
RRIRHRPPRLPRPRPRPHSGPRP | -0.487
RRIRARPPRLPRPRPRPWVFPRP | 0.276
RRIRWRPPRLPRPRPRPAHKPRP | 0.344
RRIRGRPPRLPRPRPRPIEFPRP | 0.0349
RRIRARPPRLPRPRPRPSAWPRP | 0.797
RRIRDRPPRLPRPRPRPECQPRP | -0.00804
RRIRSRPPRLPRPRPRPKLFPRP | 0.172
RRIRKRPPRLPRPRPRPLNIPRP | -0.0957
RRIRMRPPRLPRPRPRPSNGPRP | -0.0373
RRIRRRPPRLPRPRPRPGLPPRP | 0.33

— the supplement of paper PMC9112550, “Optimization of the antimicrobial peptide Bac7 by deep mutational scanning” (BMC Biology, 2022)
